Here are results for two molecules from patent publication US20250382354A1 (INSTITUTE FOR RESEARCH IN BIOMEDICINE IRB, published 2025).

Test [1] deals with C-terminally truncated SARS-CoV-2 S protein (pSARS-CoV2-Strunc), ancestral (SARS-CoV-2, UniProt P0DTC2 14-1273). Put plainly: cell-based or functional assay.
A further test has as its target Eidolon HR2 peptide (Eidolon). The test is described as follows: peptide ELISA. On the technique in general: An ELISA detects its analyte on a solid surface through an enzyme-linked reagent.
The next test concerns the target T1, CRCoV-240/05 HR2 peptide (CRCoV-240/05).
T1 construct: domain: HR2 peptide
Put plainly: peptide ELISA.

Test [2] deals with HKU24 HR2 peptide (HKU24). Put plainly: peptide ELISA.
The target in test [3] is C-terminally truncated SARS-CoV-2 S protein (pSARS-CoV2-Strunc), ancestral (SARS-CoV-2, UniProt P0DTC2 14-1273). Put plainly: cell-based or functional assay. This is another data set of the same source.
For test [4], the target named is HKU24 HR2 peptide (HKU24). Put plainly: peptide ELISA. The source holds these as a separate data set.
The next test concerns the target Rosettus HR2 peptide (Rosettus). The test is described as follows: peptide ELISA.

B1: CV3-25 (antibody, V domains shown)
VH: QVQLVESGAEVKKPGESLKISCKGSGYTFTRYWIGWVRQMPGKGLEWMGIIYPGDSDTRYSPSFQGHVTISADKSISTAYLQWNSLKASDTAMYYCARLPQYCSNGVCQRWFDPWGQGTLVTVSS
VL: EIVLTQSPSSVSASVGDRVTITCRASQGISSWLAWYQQKPGKAPKLLIYAASSLQSGVPSRFSGSGSGTDFTLTISSLQPEDFATYYCQQGNSFPYTFGQGTNLEIK
What is called EC50 is the concentration at which the effect is half-maximal. A lower EC50 goes with higher potency in that assay. For the molecule B1, the “Ancestral Pseudovirus IC50” value in test [1] turned out to be 0.223 mg/L. For the same molecule, the “Ancestral Pseudovirus IC50 (on cells with [not given])” value in test [1] stood at 0.375 mg/L. In addition, the EC50 with Eidolon HR2 peptide was determined as 0.0351 mg/L; in the test with CRCoV-240/05 HR2 peptide, 1.92 mg/L; with HKU24 HR2 peptide [2] it was 0.0521 mg/L.

B2: hr2.094 (antibody, V domains shown)
VH: EVQLVESGGGLVQPGGSLRLSCAASGFTFSTFWMTWVRQAPGKGLEWVANIKSDGSEKYYVDSVKGRFTISRDNAKNSLYLQMNSLRAEDTAVYYCATWFGLHWGQGTLVTVSS
VL: DIVMTQSPDSLAVSLGERASINCKSSQTVLYSSNNKNYLAWYQQKPGQPPKLLIHWASTRDSGVPDRFSGSGSGTDFTLTISSLQAEDVAVYYCQQYHRIPWTFGRGTKVEIK
For B2, the “Ancestral Pseudovirus IC50” value in test [3] was 2.95 mg/L. Also, the EC50 with HKU24 HR2 peptide [4] is 0.012 mg/L; with Rosettus HR2 peptide, 0.656 mg/L.
